# Data published in US20240025999A1 (BIOVENTURES, published 2024).
# Biological target: T1, HPV 16 E6 91-115 region, given as three overlapping 15-mer peptides (91-105 YGTTLEQQYNKPLCD, SEQ ID NO:21); … (human papillomavirus type 16)
# T1 peptide: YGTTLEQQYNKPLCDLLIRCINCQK
# Assay: cell-based or functional assay
row,Binder,Frequency (%) of the clonotype among IFN-gamma secreting cells sorted after peptide stimulation [%]
1,"TCR of clonotype 3 (TCR beta CDR3 CASSFPGENEQFF, SEQ ID NO:3), HPV 16 E6 91-115 specific T cell clonotype of subject 6 (TCR, V domains shown) V domain 1: GDSVTQMEGPVTLSEEAFLTINCTYTATGYPSLFWYVQYPGEGLQLLLKATKADDKGSNKGFEATYRKETTSFHLEKGSVQVSDSAVYFCALTLSGSARQLTFGSGTQLTVLP V domain 2: DAGVIQSPRHEVTEMGQEVTLRCKPISGHNSLFWYRQTMMRGLELLIYFNNNVPIDDSGMPEDRFSAKMPNASFSTLKIQPSEPRDSAVYFCASSFPGENEQFFGPGTRLTVLE",9.8
2,"TCR of clonotype 2 (TCR beta CDR3 CASSHNSGREGNEQFF, SEQ ID NO:2), HPV 16 E6 91-115 specific T cell clonotype of subject 6 (TCR, V domains shown) V domain 1: GENVEQHPSTLSVQEGDSAVIKCTYSDSASNYFPWYKQELGKRPQLIIDIRSNVGEKKDQRIAVTLNKTAKHFSLHITETQPEDSAVYFCAPRVTGGGNKLTFGTGTQLKVEL V domain 2: GAGVSQSPRYKVAKRGQDVALRCDPISGHVSLFWYQQALGQGPEFLTYFQNEAQLDKSGLPSDRFFAERPEGSVSTLKIQRTQQEDSAVYLCASSHNSGREGNEQFFGPGTRLTVLE",17
3,"TCR of clonotype 4 (TCR beta CDR3 CASSWEAGQETQYF, SEQ ID NO:4), HPV 16 E6 91-115 specific T cell clonotype of subject 6 (TCR, V domains shown) V domain 1: GENVEQHPSTLSVQEGDSAVIKCTYSDSASNYFPWYKQELGKGPQLIIDIRSNVGEKKDQRIAVTLNKTAKHFSLHITETQPEDSAVYFCAASAPGRTDKLIFGTGTRLQVFP V domain 2: KAGVTQTPRYLIKTRGQQVTLSCSPISGHRSVSWYQQTPGQGLQFLFEYFSETQRNKGNFPGRFSGRQFSNSRSEMNVSTLELGDSALYLCASSWEAGQETQYFGPGTRLLVLE",8.6
4,"TCR of clonotype 1 (TCR beta CDR3 CASSPTSGGLTWDEQYF, SEQ ID NO:1), HPV 16 E6 91-115 specific T cell clonotype of subject 6 (TCR, V domains shown) V domain 1: AQSVAQPEDQVNVAEGNPLTVKCTYSVSGNPYLFWYVQYPNRGLQFLLKYITGDNLVKGSYGFEAEFNKSQTSFHLKKPSALVSDSALYFCAVRAPSGSARQLTFGSGTQLTVLP V domain 2: EAGVAQSPRYKIIEKRQSVAFWCNPISGHATLYWYQQILGQGPKLLIQFQNNGVVDDSQLPKDRFSAERLKGVDSTLKIQPAKLEDSAVYLCASSPTSGGLTWDEQYFGPGTRLTVTE",33.3
